Biological target: Mutant H2A.Z^AP3-YFP (mouse)
Assay: co-IP; immunoprecipitation with GFP antibodies of the YFP-tagged histone from dox-induced transgenic ESCs (endogenous H2A.Z knockdown background), immunoblot of the partners; uninduced cells (No DOX) as negative controls; densitometry in ImageJ

fold of NAP1L1 bound against H2A.Z^WT: < 2 fold
B1: NAP1L1 (natural protein)
chain: MADIDNKEQSELDQDLEDVEEVEEEETGEETKIKARQLTVQMMQNPQILAALQERLDGLVDTPTGYIESLPKVVKRRVNALKNLQVKCAQIEAKFYEEVHDLERKYAVLYQPLFDKRFEIINAIYEPTEEECEWKPDEEDEVSEELKEKAKIEDEKKDEEKEDPKGIPEFWLTVFKNVDLLSDMVQEHDEPILKHLKDIKVKFSDAGQPMSFVLEFHFEPNDYFTNEVLTKTYRMRSEPDDSDPFSFDGPEIMGCTGCQIDWKKGKNVTLKTIKKKQKHKGRGTVRTVTKTVSNDSFFNFFAPPEVPENGDLDDDAEAILAADFEIGHFLRERIIPRSVLYFTGEAIEDDDDDYDEEGEEADEEGEEEGDEENDPDYDPKKDQNPAECKQQ
